The values that follow come from paper PMC12126490, “The HP1 box of KAP1 organizes HP1α for silencing of endogenous retroviral elements in embryonic stem cells” (Nature Communications, 2025).

The test system of experiment [1] is FL HP1α. The experiment in a line: mass photometry, mixture of FL HP1α and FL KAP1 (Fig. 6g). On the procedure:
For MP assays shown in Fig. 6g–I and Supplementary Fig. 12, FL KAP1 and FL HP1α were expressed and purified as described[38],[67]. MP measurements were performed on a Refeyn OneMP instrument (Refeyn Ltd). The calibration was done with a native marker protein standard mix (NativeMark Unstained Protein Standard, Thermo Scientific), which contains proteins ranging from 20 to 1200 kDa. Coverslips (24 × 50 mm, No. 1.5H, Marienfeld) were cleaned by sequential sonication in Milli-Q water, isopropanol and Milli-Q-water, followed by drying with nitrogen. For each acquisition 2 μL of protein solution was applied to 18 μL of buffer (10 mM HEPES pH 7.5, 150 mM NaCl) in a gasket (CultureWellTM Reusable Gasket, Grace Bio-Labs) on a coverslip. To capture the movie, 400 nM HP1α was diluted 10× and 200 nM KAP1 was diluted 10× for a final concentration of 40 nM and 20 nM, respectively. The final molar ratios of HP1α:KAP1 were 1:0, 1:1 and 2:1. Movies were recorded at 999 Hz with an exposure time of 0.95 ms by using the AcquireMP software (Refeyn Ltd). All mass photometry movies were processed and analysed in the DiscoverMP software (Refeyn Ltd).

For experiment [2], the system named is endogenous retroelements in KAP1 cKO ESCs. The experiment in a line: ATAC-seq chromatin accessibility. In kind it is cell-based, mouse. Particulars: exogenous expression in KAP1 cKO ESCs, 2 μg/mL doxycycline, 2 μM 4-OHT 48 h. How it is done:
ESCs were maintained under standard conditions on gelatin-coated plates at 37 °C at 5% CO2 in Knockout DMEM (Thermo Fisher) supplemented with NEAA, GlutaMAX, penicillin/streptomycin (Thermo Fisher), 15% ESC-screened fetal bovine serum (Hyclone), 0.1 mM 2-mercaptoethanol (Fisher), and leukemia-inhibitory factor (LIF). Generation of KAP1 cKO ESCs has been described previously. The piggybac transposon system was used to stably integrate transgenic Flag-tagged WT or V488E mutant KAP1 under control of an rtTA promoter (Systems Biosciences, PB-TRE-EGFP-EF1a-rtTA) into the inducible KAP1 cKO ESCs. Exogenous expression of WT or V488E mutant KAP1 was induced with 2 μg/mL doxycycline for 48 h and maintained in doxycycline prior to endogenous KAP1 deletion. KAP1 deletion was induced with 2 μM 4-OHT (Sigma) treatment for 48 h. […]
The modified ATAC-sequencing protocol Omni-ATAC was performed. […] Number of further PCR cycles required was determined using KAPA Library Quantification Kit (KK4854). […]
Quality of datasets was assessed using the FastQC tool. Raw reads were adapter and quality trimmed using Trimgalore. Trimmed reads were aligned to the mouse reference genome (mm10) with Bowtie2. Multimapping reads were randomly assigned. Optical duplicate reads were filtered using Picard (https://broadinstitute.github.io/picard/). Reads which mapped to the mitochondrial genome were removed with Samtools. […]

B1: FL KAP1: full-length KAP1 (KRAB-associated protein 1, TRIM28, TIF1β) (protein)
chain: MAASAAAASAAAASAASGSPGPGEGSAGGEKRSTAPSAAASASASAAASSPAGGGAEALELLEHCGVCRERLRPEREPRLLPCLHSACSACLGPAAPAAANSSGDGGAAGDGTVVDCPVCKQQCFSKDIVENYFMRDSGSKAATDAQDANQCCTSCEDNAPATSYCVECSEPLCETCVEAHQRVKYTKDHTVRSTGPAKSRDGERTVYCNVHKHEPLVLFCESCDTLTCRDCQLNAHKDHQYQFLEDAVRNQRKLLASLVKRLGDKHATLQKSTKEVRSSIRQVSDVQKRVQVDVKMAILQIMKELNKRGRVLVNDAQKVTEGQQERLERQHWTMTKIQKHQEHILRFASWALESDNNTALLLSKKLIYFQLHRALKMIVDPVEPHGEMKFQWDLNAWTKSAEAFGKIVAERPGTNSTGPAPMAPPRAPGPLSKQGSGSSQPMEVQEGYGFGSGDDPYSSAEPHVSGVKRSRSGEGEVSGLMRKVPRVSLERLDLDLTADSQPPVFKVFPGSTTEDYNLIVIERGAAAAATGQPGTAPAGTPGAPPLAGMAIVKEEETEAAIGAPPTATEGPETKPVLMALAEGPGAEGPRLASPSGSTSSGLEVVAPEGTSAPGGGPGTLDDSATICRVCQKPGDLVMCNQCEFCFHLDCHLPALQDVPGEEWSCSLCHVLPDLKEEDGSLSLDGADSTGVVAKLSPANQRKCERVLLALFCHEPCRPLHQLATDSTFSLDQPGGTLDLTLIRARLQEKLSPPYSSPQEFAQDVGRMFKQFNKLTEDKADVQSIIGLQRFFETRMNEAFGDTKFSAVLVEPPPMSLPGAGLSSQELSGGPGDGP
In the case of B1, the “effect on oligomerization of HP1α” value in experiment [1] is “Oligomerization of HP1α was further increased”. In addition, the “restoration of closed chromatin at IAPEz, MERVK10C and ETn” value in experiment [2] was “able to partially restore closed chromatin at IAPEz, MERVK10C and ETn elements”.
